The values below come from patent US6033847, “InK4c-p18 and InK4d-p19, inhibitors of cyclin-dependent kinases CDK4 and CDK6, and uses thereof” (St. Jude Children's Research Hospital, dated 2000).

One experiment addresses T1, cyclin D3 (Mus musculus (Mouse), UniProt P30282).
T1 sequence: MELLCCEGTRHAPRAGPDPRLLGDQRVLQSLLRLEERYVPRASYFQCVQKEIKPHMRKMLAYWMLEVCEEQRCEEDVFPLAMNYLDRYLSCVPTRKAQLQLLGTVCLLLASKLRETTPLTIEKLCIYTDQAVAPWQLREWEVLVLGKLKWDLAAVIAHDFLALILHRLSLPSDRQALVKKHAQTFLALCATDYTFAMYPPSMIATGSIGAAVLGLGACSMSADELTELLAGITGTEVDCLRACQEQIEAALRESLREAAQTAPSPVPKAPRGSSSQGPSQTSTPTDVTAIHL
Description: GST pull-down of radiolabelled cyclins D2 and D3. How it is done: (§1) Panel A is an autoradiograph of aliquots of the ^35S-methionine-labeled products, derived from the in vitro transcription and translation of plasmids containing CDNA coding sequences of the cdc or cdk gene indicated in the legend below lanes 1–6, separated by electrophoresis on denaturing polyacrylamide gels. Equal aliquots of the "input" samples shown in lanes 1–6 were incubated with control beads (lanes 7–12) (i.e., GST-Sepharose; GST=glutathione S-transferase) or with beads containing a GST-p19 fusion protein (lanes 13–18), after which the beads were washed, and adsorbed radiolabeled products were separated on gels and autoradiographed. In Panel B, the experiments were performed as in panel A, except that radiolabeled cyclins D2 and D3 were substituted for cdk gene products; the cdk4 gene product was used as a positive control. All autoradiographic exposure times were 15 hrs.
(§2) Plasmids derived from pBluescript and containing the entire coding sequences of the mouse cdk2, cdk4, cdk5, or cdk6 genes (Matsuoka et al., Mol. Cell. Biol. 14:7265–7275 (1994); Matsushime et al., Cell 71:323–334 (1992)) or human cdc2/cdk1 or cdk3 genes (provided by Drs. Matthew Meyer-son and Edward Harlow (MGH Cancer Center, Cambridge, Mass.)) were transcribed and translated in vitro (Matsuoka et al., Mol. Cell. Biol. 14:7265–7275 (1994)). Mouse cdk6 cDNA was cloned from a mouse macrophage library (Stratagene, La Jolla, Calif.) by screening with a full-length human cdk6 clone (also provided by M. Meyerson and E. Harlow). Following transcription and translation, rabbit reticulocyte lysates containing ^35S-methionine labeled CDKs (20–40 ul) were diluted to 0.5 ml in IP kinase buffer (50 mM Hepes, pH 7.5, containing 150 mM NaCl, 1 mM EDTA, 1 mM DTT, 0.1% Tween-20) containing 10 mg/ml BSA and mixed with 1 ug of purified GST or GST-p19 immobilized on glutathione-Sepharose beads. After 2 hours of incubation at 4° C., beads were collected by centrifugation, washed 4 times in IP kinase buffer, and the bound proteins were denatured and analyzed by electrophoresis on 12.5% polyacrylamide gels containing SDS (Anderson, S. J., et al., J. Virol. 51:730–741 (1984)).

In a further experiment the target is cyclin D2 (Mus musculus (Mouse), UniProt P30280). The experiment is described as follows: GST pull-down of radiolabelled cyclins D2 and D3. As for the experimental part: as §1, §2
For another experiment, the target named is mouse CDK5 (mouse, UniProt P49615). Description: GST pull-down of 35S-labelled in vitro translated CDKs. How it is done:
(§3) Equal aliquots of the "input" samples shown in lanes 1–6 were incubated with control beads (lanes 7–12) (i.e., GST-Sepharose; GST=glutathione S-transferase) or with beads containing a GST-p19 fusion protein (lanes 13–18), after which the beads were washed, and adsorbed radiolabeled products were separated on gels and autoradiographed. In Panel B, the experiments were performed as in panel A, except that radiolabeled cyclins D2 and D3 were substituted for cdk gene products; the cdk4 gene product was used as a positive control. All autoradiographic exposure times were 15 hrs.
(§4) Human InK4 polypeptides specifically bind to the cyclin D-dependent catalytic subunits, CDK4 and CDK6 (5,18,45). To study the interactions of mouse p19 and p18 with CDKs, cDNAs encoding CDC2 (CDK1) and CDKs 2–6 were transcribed and translated in vitro, and the radiolabeled products were mixed with GST-tagged p19 and p18 fusion proteins adsorbed to glutathione-Sepharose beads or to GST-Sepharose beads as a control.
as §2

The target of the next experiment is human CDC2 (CDK1) (human, UniProt P06493). Described as above. How it is done:
as §3, §4, §2

The next experiment has as its target mouse CDK2 (mouse, UniProt P97377-2). The description is as above. As for the experimental part: as §3, §4, §2
Experiment [1] has as its target cyclin D1 (endogenous, murine BAC1.2F5 macrophages) (mouse, UniProt P25322). The experiment is described as follows: co-immunoprecipitation from lysates of proliferating mouse cells with antiserum to the p19 C-terminus.

B1: GST-p19 fusion protein (glutathione S-transferase fused to mouse InK4d-p19) (other)
chain: MLLEEVCVGDRLSGARARGDVQEVRRLLHRELVHPDALNRFGKTALQVMMFGSPAVALELLKQGASPNVQDASGTSPVHDAARTGFLDTLKVLVEHGADVNALDSTGSLPIHLAIREGHSSVVSFLAPESDLHHRDASGLTPLELARQRGAQNLMDILQGHMMIPM
B1: the binding result is recorded as “no binding” with cyclin D3; “no binding” with cyclin D2; “no binding (tested: 1 ug on beads)” with mouse CDK5; “no binding (tested: 1 ug on beads)” with human CDC2 (CDK1); “no binding (tested: 1 ug on beads)” with mouse CDK2.

B2: mouse InK4d-p19 (other)
chain: MLLEEVCVGDRLSGARARGDVQEVRRLLHRELVHPDALNRFGKTALQVMMFGSPAVALELLKQGASPNVQDASGTSPVHDAARTGFLDTLKVLVEHGADVNALDSTGSLPIHLAIREGHSSVVSFLAPESDLHHRDASGLTPLELARQRGAQNLMDILQGHMMIPM
B2: the binding result in experiment [1] is “no binding”.

B3: GST-p18 fusion protein (glutathione S-transferase fused to mouse InK4c-p18) (other)
chain: MAEPWGNELASAAARGDLEQLTSLLQNNVNVNAQNGFGRTALQVMKLGNPEIARRLLLRGANPNLKDGTGFAVIHDAARAGFLDTVQALLEFQADVNIEDNEGNLPLHLAAKEGHLPVVEFLMKHTACNVGHRNHKGDTAFDLARFYGRNEVISLMEANGVGGATSLQ
For B3, the binding result with cyclin D3, with cyclin D2, with mouse CDK5, with human CDC2 (CDK1) and with mouse CDK2 was “no binding” each time.
